Data: the supplement of paper PMC9170038

Test system: MS2 coat protein
Experiment: apparent KD of MS2 coat protein; designed switch direction (-1 OFF switch, 1 ON switch): 1; higher = weaker reporter binding
Method in brief: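 SNAP-549-labelled MS2 coat protein was titrated, doubling from 0.7 or 1.5 nM to 3 µM, over designed RNA switches transcribed on Illumina chips by stalled E. coli RNA polymerase. Runs were done without input, with 200 uM small-molecule ligand, or with an oligonucleotide input. Apparent KD is the per-design median over clusters of curve-fitted normalised fluorescence.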

[1] = Eterna round: R95, input ligand: FMN 200 uM
[2] = Eterna round: R95, input ligand: microRNA oligo, concentration not stated
[3] = Eterna round: R95, input ligand: none
[4] = input ligand: microRNA oligo, concentration not stated

| Sequence | apparent KD of MS2 coat protein [1] | apparent KD of MS2 coat protein [2] | apparent KD of MS2 coat protein [3] | apparent KD of MS2 coat protein (input ligand: FMN 200 uM) | apparent KD of MS2 coat protein [4] | apparent KD of MS2 coat protein (input ligand: none) |
| --- | --- | --- | --- | --- | --- | --- |
| UGAAAACAUGAGGAUCACCCAUGUAUUAUUAUGGGAGGAUAUGGGAAUUAAUUAAUUAAACCAGAAGGCCUAAAGU [Mat - Same State 1 - D89] (puzzle: Same State 1) | 0.0247 µM | 0.0572 µM | 0.0526 µM |  |  |  |
| UGAAUAAUGAUAGGAUAUACAUGAGGAAUCCUCGUAGAAGGAUCAUGACAUGAGGAUCACCCAUGUAGCGCUCGAAAGAGCGCA [Mat - Same State NG 1 - JL mod - D52] (Eterna round: R96, puzzle: Same State NG 1) |  |  |  | 0.186 µM | 0.0549 µM | 0.232 µM |
| UGAAUAGUGAUAGGAUAUACAUGAGGAAUCCUCGUAGAAGGAUCACGACAUGAGGAUCACCCAUGUAGCCGUCCGUAGACGGCA [Mat - Same State NG 1 - JL mod - D59] (Eterna round: R96, puzzle: Same State NG 1) |  |  |  | 0.353 µM | 0.0664 µM | 0.231 µM |
| UGAAUAGUUACAGGAUAUCAUGCGAAAAUUGCGUGAGAAGGGUGGGUGUUGUGCGCUAAGUGCCACAUGAGGAUCACCCAUGUU [SameState NG1 #38] (Eterna round: R96, puzzle: Same State NG 1) |  |  |  | 0.0445 µM | 0.0071 µM | 0.0256 µM |
| UGAAUAGUUACAGGAUAUGAGCCGUAAAUUGGGUCAGAAGGGUGGGUGUUUUGCGCUGUGUGCUACAUGAGGAUCACCCAUGUU [SameState NG1 #33] (Eterna round: R96, puzzle: Same State NG 1) |  |  |  | 0.52 µM | 0.172 µM | 0.24 µM |
| UGAGGUGUAGCAGGAUAUGCCGUCAGUCACCCGGCAGAAGGGCUGAAAGCAUGCUCGCACAUGAGGAUCACCCAUGUCACAGUG [Eternabot solution 17] (Eterna round: R96, puzzle: Same State NG 1) |  |  |  | 0.0489 µM | 0.0377 µM | 0.044 µM |
| UGCCUGAGUCGAGGAUAUUAUGGAUCAAUUAAUACAUGAGGAUCACCCAUGUAAUUAAUUUAACAUGAGAAGGUGACUCAGGCA [SSNG2/10-B2] (Eterna round: R96, puzzle: Same State NG 2) |  |  |  | 0.0149 µM | 0.0122 µM | 0.00999 µM |
| UGCCUGAGUCGAGGAUAUUAUGGAUCCUCUAAUACAUGAGGAUCACCCAUGUAAUUAAUUAUACAUGAGAAGGCGACUCAGGCU [SSNG2/12-A1] (Eterna round: R96, puzzle: Same State NG 2) |  |  |  | 0.304 µM | 0.0223 µM | 0.0465 µM |
| UGCCUGAGUCGAGGAUAUUAUGGAUCCUUUAAUACAUGAGGAUCACCCAUGUAAUUAAUUAUACAUGAGAAGGCGACUCAGGCA [SSNG2/11-A2] (Eterna round: R96, puzzle: Same State NG 2) |  |  |  | 0.0174 µM | 0.097 µM | 0.0901 µM |
| UGGAUCUAGGCUUGCCUGGGUCCAUGCUGACAUGAGGAUCACCCAUGUGCAUUCUAUAAGCUUUUUGCUUGUCAGCU (puzzle: Sensor for hsa-mir-208a) | 0.373 µM | 0.091 µM | 0.441 µM |  |  |  |
| UGGCUCAGACGAGGAUAUAUGUGAUCACAUGAGGAUCACCCAUGUCUCGAGCUUCGGCUCGAGACAUAGAAGGCGUCUGAGCCA [SSNG2/3-A2] (Eterna round: R96, puzzle: Same State NG 2) |  |  |  | 0.118 µM | 0.0663 µM | 0.0185 µM |
| UGGCUCAGAGCAGGAUAUAUGUCUCGAGCUUCGGCUCGAGACAUGAGGAUCACCCAUGUAAUAACAUAGAAGGGCUCUGAGCCU [SSNG2/1-B3] (Eterna round: R96, puzzle: Same State NG 2) |  |  |  | 0.0158 µM | 0.042 µM | 0.0533 µM |
| UGGUACAUGGGAGGAUAUCCUCAGGAGACAUGAGGAUCACCCAUGUAAUAUAAGCCGAAAGGCAUGGAGAAGGCCCAUGUACCU [JL SSNG1 3.81] (Eterna round: R96, puzzle: Same State NG 2) |  |  |  | 0.0276 µM | 0.15 µM | 0.167 µM |
| UGGUACAUGGGAGGAUAUCUCAUGGAGACAUGAGGAUCACCCAUGUAGAUCGACGGUAACGUCGGAGAGAAGGCCCAUGUACCU [MOD JL SSNG1 3.70] (Eterna round: R96, puzzle: Same State NG 2) |  |  |  | 0.0174 µM | 0.0326 µM | 0.05 µM |
| UGGUACAUGGGAGGAUAUCUCAUGGAGACAUGAGGAUCACCCAUGUAGUAGGACCGGAAACGGUGAGAGAAGGCCCAUGUACCU [JL SSNG1 3.73] (Eterna round: R96, puzzle: Same State NG 2) |  |  |  | 0.0266 µM | 0.0405 µM | 0.0515 µM |
| UGGUACAUGGGAGGAUAUCUCAUGGAGACAUGAGGAUCACCCAUGUAGUUGGACCGGAAACGGUGAGAGAAGGCCCAUGUACCU [JL SSNG1 3.72] (Eterna round: R96, puzzle: Same State NG 2) |  |  |  | 0.0302 µM | 0.0528 µM | 0.0596 µM |
| UGUUAACAUGAGGAUCACCCAUGUCAAAUGAAGCGAGGAUAUGGAAAGUAAUAAGAUGAACUAGAAGGUGUAGAUG [Altered State 1-21 - Jieux - Same State 1] (puzzle: Same State 1) | 0.0405 µM | 0.0484 µM | 0.0528 µM |  |  |  |
| UGUUGUAUUACAGGAUAUCUAUUGAUUUUAUUUAGAGAAGGGUAUUCACAUGAGGAUCACCCAUGUAUAUACGAGGAAGUUGUG [JMF's solution 71] (Eterna round: R96, puzzle: Same State NG 1) |  |  |  |  | 0.0415 µM |  |
| UGUUGUAUUACAGGAUAUCUAUUGUUGUUAUUUAGAGAAGGGUAUUCACAUGAGGAUCACCCAUGUAUAUACGAGGAAGUUGUG [JMF's solution 75] (Eterna round: R96, puzzle: Same State NG 1) |  |  |  |  | 0.0419 µM |  |
| UGUUUGUUGUGAGGAUAUACGUACACCUUACAUGAGGAUCACCCAUGUUGUUUCUUUGAUUGUUGGUAGAAGGCACUUGGUUAU [JR_SSNG2_Sub048] (Eterna round: R96, puzzle: Same State NG 2) |  |  |  | 0.324 µM | 0.123 µM | 0.208 µM |
| UUAACAUGAGGAUCACCCAUGUAUACGUAGUUUGCAUUUUGACAGGAUAUUGUUUAUCUAUAUAGCAAGAAGGGUCGUUAGUCU [JR_SSNG3_Sub009] (Eterna round: R96, puzzle: Same State NG 3) |  |  |  | 0.027 µM | 0.0318 µM | 0.0419 µM |
| UUAAUAAUGAUAGGAUAUACAUGAGGAAUUCUCGUAGAAGGAUCAUGACAUGAGGAUCACCCAUGUAACGCUCGGAAGAGCGUA [Mat - Same State NG 1 - JL mod - D38] (Eterna round: R96, puzzle: Same State NG 1) |  |  |  | 0.846 µM | 0.236 µM | 0.909 µM |
| UUAAUCUGAACAUGAGGAUCACCCAUGUAUCUUACCUUAGGACAGGAUAUAGAUGUUAAGAAUUACUAGAAGGGUCAGUAUAUU [JR_SSNG3_Sub012] (Eterna round: R96, puzzle: Same State NG 3) |  |  |  |  | 0.0331 µM |  |
